T1: Recombinant Human MASP-1 (human, UniProt P48740 20-699, limits assumed)
T1 construct: Bought protein, construct not described
T1 sequence (looked up): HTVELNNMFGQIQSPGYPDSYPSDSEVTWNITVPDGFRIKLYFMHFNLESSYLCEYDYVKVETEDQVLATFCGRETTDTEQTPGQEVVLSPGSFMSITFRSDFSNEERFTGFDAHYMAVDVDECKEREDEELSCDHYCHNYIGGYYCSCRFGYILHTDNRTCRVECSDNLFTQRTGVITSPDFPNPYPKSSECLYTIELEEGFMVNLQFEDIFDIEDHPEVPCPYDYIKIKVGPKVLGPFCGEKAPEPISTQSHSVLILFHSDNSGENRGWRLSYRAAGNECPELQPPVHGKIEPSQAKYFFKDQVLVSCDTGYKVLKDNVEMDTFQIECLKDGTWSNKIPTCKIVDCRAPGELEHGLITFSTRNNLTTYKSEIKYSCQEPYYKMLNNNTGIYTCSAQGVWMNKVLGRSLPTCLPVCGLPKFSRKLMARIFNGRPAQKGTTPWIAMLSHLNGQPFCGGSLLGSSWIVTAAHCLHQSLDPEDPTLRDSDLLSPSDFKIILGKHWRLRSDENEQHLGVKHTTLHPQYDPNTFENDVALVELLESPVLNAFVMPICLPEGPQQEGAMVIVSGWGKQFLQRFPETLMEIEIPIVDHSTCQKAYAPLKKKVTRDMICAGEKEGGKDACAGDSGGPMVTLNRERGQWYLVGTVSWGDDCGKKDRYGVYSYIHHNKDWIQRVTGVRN

T2: Recombinant Human Complement Component C1s (human, UniProt P09871 16-688, limits assumed)
T2 construct: Bought protein, construct not described; also called human C1s
T2 sequence (looked up): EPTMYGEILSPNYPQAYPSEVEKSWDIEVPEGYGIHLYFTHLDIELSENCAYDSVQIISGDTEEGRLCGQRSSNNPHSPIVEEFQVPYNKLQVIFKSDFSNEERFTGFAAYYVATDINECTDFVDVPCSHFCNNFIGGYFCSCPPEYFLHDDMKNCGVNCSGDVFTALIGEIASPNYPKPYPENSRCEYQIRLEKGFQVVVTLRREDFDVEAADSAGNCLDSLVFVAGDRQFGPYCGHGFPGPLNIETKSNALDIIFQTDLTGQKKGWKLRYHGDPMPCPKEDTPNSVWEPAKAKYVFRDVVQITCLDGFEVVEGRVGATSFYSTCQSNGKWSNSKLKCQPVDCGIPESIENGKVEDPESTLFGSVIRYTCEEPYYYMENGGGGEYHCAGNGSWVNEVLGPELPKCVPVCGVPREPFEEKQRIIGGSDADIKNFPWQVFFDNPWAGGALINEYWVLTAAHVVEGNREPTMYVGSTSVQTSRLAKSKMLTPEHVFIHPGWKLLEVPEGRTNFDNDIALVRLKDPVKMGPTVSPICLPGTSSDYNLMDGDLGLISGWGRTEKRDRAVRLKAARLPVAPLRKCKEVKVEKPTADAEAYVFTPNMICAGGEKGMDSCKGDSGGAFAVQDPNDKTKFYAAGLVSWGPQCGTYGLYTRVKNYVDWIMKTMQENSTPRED

T3: Recombinant Human MASP-3 (human, UniProt P48740-2 20-728, limits assumed)
T3 construct: Bought protein, construct not described
T3 sequence (looked up): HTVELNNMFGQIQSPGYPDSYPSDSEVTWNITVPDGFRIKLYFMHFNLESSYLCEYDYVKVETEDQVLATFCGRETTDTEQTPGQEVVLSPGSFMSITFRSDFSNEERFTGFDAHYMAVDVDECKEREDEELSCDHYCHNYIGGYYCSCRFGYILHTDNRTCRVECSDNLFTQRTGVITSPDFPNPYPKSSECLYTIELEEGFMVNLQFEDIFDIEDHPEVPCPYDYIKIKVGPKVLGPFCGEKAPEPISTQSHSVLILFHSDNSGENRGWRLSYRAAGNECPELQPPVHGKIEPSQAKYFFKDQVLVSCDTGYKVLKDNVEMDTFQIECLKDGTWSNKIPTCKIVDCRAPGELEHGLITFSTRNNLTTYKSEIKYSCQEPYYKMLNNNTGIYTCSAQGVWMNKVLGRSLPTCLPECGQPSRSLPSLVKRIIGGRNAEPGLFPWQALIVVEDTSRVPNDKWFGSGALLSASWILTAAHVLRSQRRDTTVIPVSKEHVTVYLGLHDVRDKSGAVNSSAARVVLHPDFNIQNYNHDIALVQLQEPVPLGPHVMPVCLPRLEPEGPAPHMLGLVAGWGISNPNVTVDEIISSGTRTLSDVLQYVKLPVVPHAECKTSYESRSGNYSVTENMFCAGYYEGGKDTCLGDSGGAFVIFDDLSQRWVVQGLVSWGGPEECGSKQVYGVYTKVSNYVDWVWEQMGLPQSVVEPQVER


Assays:
[1] = target: T4, human MASP-2 protein (recombinant, full-length, C-terminal tag) (human, UniProt O00187 16-686); assay: BLI (ForteBio Octet RED96), antibody on Protein A biosensor, human MASP-2 in solution (100, 50, 25 nM)
T4 construct: The protein was secreted and purified on an anti-FLAG or anti-HIS column; also called hMASP-2; Full-length human MASP-2 protein; not shown: C-terminal HIS-tag or FLAG-tag
T4 sequence (O00187 16-686): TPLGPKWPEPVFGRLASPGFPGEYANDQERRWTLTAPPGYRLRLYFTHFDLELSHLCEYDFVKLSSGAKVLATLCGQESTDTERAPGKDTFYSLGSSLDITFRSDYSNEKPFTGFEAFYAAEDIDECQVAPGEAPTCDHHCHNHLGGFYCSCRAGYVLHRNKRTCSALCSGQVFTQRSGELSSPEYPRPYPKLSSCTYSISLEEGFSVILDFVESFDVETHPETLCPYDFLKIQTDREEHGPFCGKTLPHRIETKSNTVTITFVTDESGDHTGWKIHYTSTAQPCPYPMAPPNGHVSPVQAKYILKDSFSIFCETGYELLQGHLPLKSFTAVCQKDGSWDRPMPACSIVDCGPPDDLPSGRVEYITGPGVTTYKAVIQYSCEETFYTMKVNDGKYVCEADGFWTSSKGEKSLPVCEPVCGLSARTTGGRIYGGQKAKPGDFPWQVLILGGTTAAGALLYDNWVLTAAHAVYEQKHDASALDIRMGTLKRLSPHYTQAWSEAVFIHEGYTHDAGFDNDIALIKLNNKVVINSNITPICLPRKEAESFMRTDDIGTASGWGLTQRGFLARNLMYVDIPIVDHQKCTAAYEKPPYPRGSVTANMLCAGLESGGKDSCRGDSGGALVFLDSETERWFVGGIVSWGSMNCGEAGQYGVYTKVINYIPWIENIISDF

[2] = target: T4, human MASP-2 protein (recombinant, …); assay: ELISA; plate coated with human MASP2, serially diluted antibody, anti-human IgG4 HRP, OD at 450nm; concentration axis printed as 'Antibody conc.(nM)'
Recombinant Human MASP-1 = target: T1, Recombinant Human MASP-1; assay: ELISA; plate coated with recombinant human MASP-1, mouse anti-human IgG4 HRP, OD450
Cyno MASP2 = target: T5, Cyno MASP2; assay: ELISA; plate coated with cynomolgus MASP2 (1 ug/ml), serially diluted antibody, mouse anti-human IgG4 Fc HRP, OD450
T5 construct: Recombinant coated protein; distinct from m29 (native MASP-2 in cynomolgus serum); also called cynomolgus MASP-2 (recombinant, generated in house)
T5 sequence (MASP-2 polypeptide, as listed by the source limits assumed): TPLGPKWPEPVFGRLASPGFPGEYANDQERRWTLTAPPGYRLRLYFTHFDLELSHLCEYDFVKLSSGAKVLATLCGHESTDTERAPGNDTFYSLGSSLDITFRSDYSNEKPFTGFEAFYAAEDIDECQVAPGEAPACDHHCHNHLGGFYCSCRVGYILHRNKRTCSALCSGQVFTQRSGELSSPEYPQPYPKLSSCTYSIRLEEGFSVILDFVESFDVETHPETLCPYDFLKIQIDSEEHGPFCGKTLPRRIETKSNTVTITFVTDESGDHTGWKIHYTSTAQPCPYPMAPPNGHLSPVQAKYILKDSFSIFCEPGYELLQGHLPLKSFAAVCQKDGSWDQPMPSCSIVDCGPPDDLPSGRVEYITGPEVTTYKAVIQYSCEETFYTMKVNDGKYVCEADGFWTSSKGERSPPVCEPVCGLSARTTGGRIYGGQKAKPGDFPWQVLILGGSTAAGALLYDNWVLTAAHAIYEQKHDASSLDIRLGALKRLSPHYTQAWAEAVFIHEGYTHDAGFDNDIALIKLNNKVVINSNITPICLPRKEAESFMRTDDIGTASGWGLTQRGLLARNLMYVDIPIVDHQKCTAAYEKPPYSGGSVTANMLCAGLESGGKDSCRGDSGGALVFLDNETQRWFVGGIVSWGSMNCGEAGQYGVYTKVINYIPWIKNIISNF

[3] = target: T2, Recombinant Human Complement Component …; assay: ELISA; plate coated with recombinant human C1s, serially diluted antibody, mouse anti-human IgG4 HRP, OD450 (fit value printed for a flat curve)
[4] = target: T4, human MASP-2 protein (recombinant, …); assay: ELISA; plate coated with human MASP2 (1 ug/ml), serially diluted antibody, mouse anti-human IgG4 Fc HRP, OD450
Recombinant Human MASP-3 = target: T3, Recombinant Human MASP-3; assay: ELISA; plate coated with recombinant human MASP-3, mouse anti-human IgG4 HRP, OD450
Mouse MASP2 = target: T6, Mouse MASP2 (mouse, UniProt Q91WP0); assay: ELISA; plate coated with mouse MASP2 (1 ug/ml), serially diluted antibody, mouse anti-human IgG4 Fc HRP, OD450 (fit value printed for a flat curve)
T6 construct: purchased protein coated on the ELISA plate at 1 ug/ml
T6 sequence (Q91WP0 20-685 limits assumed): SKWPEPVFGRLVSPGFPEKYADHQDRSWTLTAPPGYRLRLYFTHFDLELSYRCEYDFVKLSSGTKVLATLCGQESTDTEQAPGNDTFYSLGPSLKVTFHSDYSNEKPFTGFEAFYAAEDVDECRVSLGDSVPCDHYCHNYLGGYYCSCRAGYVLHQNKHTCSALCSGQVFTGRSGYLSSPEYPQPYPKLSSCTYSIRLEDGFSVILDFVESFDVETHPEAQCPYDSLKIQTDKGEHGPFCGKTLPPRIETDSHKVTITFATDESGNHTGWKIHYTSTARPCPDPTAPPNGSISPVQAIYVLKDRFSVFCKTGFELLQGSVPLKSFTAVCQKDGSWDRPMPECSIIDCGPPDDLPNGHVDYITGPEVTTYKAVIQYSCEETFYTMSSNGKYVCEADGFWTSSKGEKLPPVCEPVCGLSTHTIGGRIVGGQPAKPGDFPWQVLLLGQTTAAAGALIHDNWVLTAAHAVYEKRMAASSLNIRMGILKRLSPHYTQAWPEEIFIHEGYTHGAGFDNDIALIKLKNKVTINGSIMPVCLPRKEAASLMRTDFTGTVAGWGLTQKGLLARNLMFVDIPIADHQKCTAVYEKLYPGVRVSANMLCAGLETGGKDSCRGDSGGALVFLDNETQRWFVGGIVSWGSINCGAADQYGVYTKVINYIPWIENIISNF

Rat MASP2 = target: T7, Rat MASP2 (rat, UniProt Q9JJS8); assay: ELISA; plate coated with rat MASP2 (1 ug/ml), serially diluted antibody, mouse anti-human IgG4 Fc HRP, OD450 (fit value printed for a flat curve)
T7 construct: purchased protein coated on the ELISA plate at 1 ug/ml
T7 sequence (Q9JJS8 20-685 limits assumed): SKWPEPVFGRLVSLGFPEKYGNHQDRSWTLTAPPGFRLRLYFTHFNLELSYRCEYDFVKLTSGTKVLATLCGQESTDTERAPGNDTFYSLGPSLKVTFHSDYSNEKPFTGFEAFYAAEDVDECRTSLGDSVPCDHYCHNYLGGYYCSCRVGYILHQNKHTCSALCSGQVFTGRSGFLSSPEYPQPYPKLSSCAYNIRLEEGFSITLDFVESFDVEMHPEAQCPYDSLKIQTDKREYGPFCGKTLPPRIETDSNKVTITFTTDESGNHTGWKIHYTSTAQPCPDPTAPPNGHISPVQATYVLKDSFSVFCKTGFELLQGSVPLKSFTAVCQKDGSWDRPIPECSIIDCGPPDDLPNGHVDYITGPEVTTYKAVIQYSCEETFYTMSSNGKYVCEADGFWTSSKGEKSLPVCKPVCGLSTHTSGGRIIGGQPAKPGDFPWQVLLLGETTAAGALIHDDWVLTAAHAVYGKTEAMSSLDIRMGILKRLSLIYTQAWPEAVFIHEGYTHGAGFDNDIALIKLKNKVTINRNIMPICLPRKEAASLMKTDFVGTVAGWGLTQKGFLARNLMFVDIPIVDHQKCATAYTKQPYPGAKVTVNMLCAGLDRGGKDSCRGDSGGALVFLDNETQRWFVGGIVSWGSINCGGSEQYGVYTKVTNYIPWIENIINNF

[5] = target: T8, Human FcRn (FCGRT&B2M) protein with His tag (human, UniProt P55899 24-297; P61769 21-119); assay: BLI (ForteBio), His-tagged human FcRn on Ni-NTA biosensor, antibody in solution (500, 167, 56, 19 nM)
T8 construct: Carries a His tag (held on Ni-NTA biosensors)

[6] = target: T8, Human FcRn (FCGRT&B2M) protein with His …; assay: BLI (ForteBio), His-tagged human FcRn on Ni-NTA biosensor

Kd [1] [nM]	koff [1] [s⁻¹]	kon [1] [M⁻¹ s⁻¹]	EC50 [2] [nM]	binding result (Recombinant Human MASP-1)	EC50 (Cyno MASP2) [µg/mL]	EC50 [3] [µg/mL]	EC50 [4] [µg/mL]	binding result (Recombinant Human MASP-3)	EC50 (Mouse MASP2) [µg/mL]	EC50 (Rat MASP2) [µg/mL]	Kd [5] [nM]	koff [5] [s⁻¹]	kon [5] [M⁻¹ s⁻¹]	fold increase of binding affinity against 129C10-hu [6] [fold]	Binder
< 0.001	< 1e-07	35300	0.0162	no binding (tested: about 2 ug/ml)	0.0111	~1.65	0.0127	no binding (tested: about 2 ug/ml)	~672	17.2	6.1	0.00317	520000	–	129C10 HaLa (129C10-hu) (antibody, human IgG4, Humanized; also called 129C10-hu-WT; Hu129C10_HaLa-hIgG4) VH: not shown VL: DVVMTQSPLSLPVTLGQPASISCKSSQSLLYSNGKTYLNWLQQRPGQSPRRLIYLVSKLDSGVPDRFSGSGSGTDFTLKISRVEAEDVGVYYCVQVTHFPFTFGQGTKLEIKRTVAAPSVFIFPPSDEQLKSGTASVVCLLNNFYPREAKVQWKVDNALQSGNSQESVTEQDSKDSTYSLSSTLTLSKADYEKHKVYACEVTHQGLSSPVTKSFNRGEC
–	–	–	–	–	–	–	–	–	–	–	1.88	0.00101	536000	3	129C10-hu-YTE (Hu129C10 hIgG4_YTE kappa) (antibody, also called Hu129C10_HaLa-hIgG4 with amino acid substitutions M252Y/S254T/T256E [YTE]) heavy: QVQLVQSGAEVKKPGASVKVSCKASGYTFTDYYINWVRQAPGQGLEWMGWIFPGSESAYHSEKFKARVTMTVDTSISTAYMELSRLRSDDTAVYYCTRGDRSGPFAYWGQGTLVTVSSASTKGPSVFPLAPCSRSTSESTAALGCLVKDYFPEPVTVSWNSGALTSGVHTFPAVLQSSGLYSLSSVVTVPSSSLGTKTYTCNVDHKPSNTKVDKRVESKYGPPCPPCPAPEFLGGPSVFLFPPKPKDTLYITREPEVTCVVVDVSQEDPEVQFNWYVDGVEVHNAKTKPREEQFNSTYRVVSVLTVLHQDWLNGKEYKCKVSNKGLPSSIEKTISKAKGQPREPQVYTLPPSQEEMTKNQVSLTCLVKGFYPSDIAVEWESNGQPENNYKTTPPVLDSDGSFFLYSRLTVDKSRWQEGNVFSCSVMHEALHNHYTQKSLSLSLGK light: DVVMTQSPLSLPVTLGQPASISCKSSQSLLYSNGKTYLNWLQQRPGQSPRRLIYLVSKLDSGVPDRFSGSGSGTDFTLKISRVEAEDVGVYYCVQVTHFPFTFGQGTKLEIKRTVAAPSVFIFPPSDEQLKSGTASVVCLLNNFYPREAKVQWKVDNALQSGNSQESVTEQDSKDSTYSLSSTLTLSKADYEKHKVYACEVTHQGLSSPVTKSFNRGEC

— patent US20240309113A1 (SUZHOU TRANSCENTA THERAPEUTICS, published 2024)
